# Data published in the supplement of paper PMC10567573.
# B1: ZNF511 (parent)
# chain: AAPFRFVARPVRFPREHQFFEDGD
# Variants of: B1
# Test: protein stability index of a GFP-peptide fusion (GPS, HEK-293T) (PSI 1-6); higher = more stable
# Settings: c terminus: a fixed tail appended
# 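Also: lentivirally expressed fusions sorted by FACS into six bins by GFP to DsRed ratio, PSI derived from sequencing read proportions per bin multiplied by bin number.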
row,Variant,protein stability index
1,AAPFRFVATPVRFPREHQFFEDGD,1.83
2,AAPFRFVAWPVRFPREHQFFEDGD,1.41
3,AAPFRFVAVPVRFPREHQFFEDGD,2.14
4,AAPFRFVAYPVRFPREHQFFEDGD,1.84
5,AAPFRFVASPVRFPREHQFFEDGD,2.2
6,AAPFRFVAQPVRFPREHQFFEDGD,3.03
7,AAPFRFVARPVRFPRDHQFFEDGD,1.98
8,AAPFRFVARPVRFPRFHQFFEDGD,1.82
9,AAPFRFVARPVRFPRHHQFFEDGD,2.25
10,AAPFRFVARPVRFPRGHQFFEDGD,2.53
11,AAPFRFVARPVRFPRVHQFFEDGD,2.34
12,AAPFRFVARPVRFPRNHQFFEDGD,1.75
13,AAPFRFVARPVRFPRIHQFFEDGD,2.03
14,AAPFRFVARPVRFPRKHQFFEDGD,2.15
15,AAPFRFVARPVRFPRLHQFFEDGD,2.26
16,AAPFRFVARPVRFPRCHQFFEDGD,1.93
17,AAPFRFVARPVRFPRWHQFFEDGD,1.79
18,AAPFRFVARPVRFPRPHQFFEDGD,2.55
19,AAPFRFVARPVRFPRRHQFFEDGD,2.32
20,AAPFRFVARPVRFPRYHQFFEDGD,1.68
21,AAPFRFVARPVRFPRTHQFFEDGD,2.18
22,AAPFRFVARPVRFPRAHQFFEDGD,3.2
23,AAPFRFVARPVRFPRMHQFFEDGD,1.57
24,AAPFRFVARPVRFPRSHQFFEDGD,2.1

row,Variant,protein stability index
1,AAPFRFVARPVRFPRQHQFFEDGD,2.18
2,AAPFRFVARPVRFKREHQFFEDGD,2.93
3,AAPFRFVARPVRFNREHQFFEDGD,2.1
4,AAPFRFVARPVRFFREHQFFEDGD,2
5,AAPFRFVARPVRFWREHQFFEDGD,1.34
6,AAPFRFVARPVRFIREHQFFEDGD,2.33
7,AAPFRFVARPVRFYREHQFFEDGD,1.8
8,AAPFRFVARPVRFQREHQFFEDGD,2.15
9,AAPFRFVARPVRFHREHQFFEDGD,1.69
10,AAPFRFVARPVRFCREHQFFEDGD,2.02
11,AAPFRFVARPVRFRREHQFFEDGD,2.51
12,AAPFRFVARPVRFMREHQFFEDGD,2.17
13,AAPFRFVARPVRFDREHQFFEDGD,2.26
14,AAPFRFVARPVRFGREHQFFEDGD,1.76
15,AAPFRFVARPVRFLREHQFFEDGD,1.84
16,AAPFRFVARPVRFTREHQFFEDGD,1.87
17,AAPFRFVARPVRFSREHQFFEDGD,1.88
18,AAPFRFVARPVRFVREHQFFEDGD,2.22
19,AAPFRFVARPVRFAREHQFFEDGD,2.16
20,AAPFRFVARPVRFEREHQFFEDGD,2.45
21,AAPFRFVARPHRFPREHQFFEDGD,2.04
22,AAPFRFVARPNRFPREHQFFEDGD,1.95
23,AAPFRFVARPWRFPREHQFFEDGD,1.78
24,AAPFRFVARPRRFPREHQFFEDGD,2

row,Variant,protein stability index
1,AAPFRFVARPMRFPREHQFFEDGD,2.06
2,AAPFRFVARPERFPREHQFFEDGD,1.99
3,AAPFRFVARPKRFPREHQFFEDGD,1.75
4,AAPFRFVARPTRFPREHQFFEDGD,1.94
5,AAPFRFVARPLRFPREHQFFEDGD,2.02
6,AAPFRFVARPFRFPREHQFFEDGD,1.99
7,AAPFRFVARPARFPREHQFFEDGD,1.96
8,AAPFRFVARPCRFPREHQFFEDGD,2.02
9,AAPFRFVARPGRFPREHQFFEDGD,1.53
10,AAPFRFVARPDRFPREHQFFEDGD,2.14
11,AAPFRFVARPYRFPREHQFFEDGD,1.74
12,AAPFRFVARPPRFPREHQFFEDGD,2.03
13,AAPFRFVARPQRFPREHQFFEDGD,2.38
14,AAPFRFVARPIRFPREHQFFEDGD,2.08
15,AAPFRFVARPSRFPREHQFFEDGD,2.34
16,AAPFRFVARPVRFPQEHQFFEDGD,2.51
17,AAPFRFVARPVRFPFEHQFFEDGD,2.08
18,AAPFRFVARPVRFPTEHQFFEDGD,2.57
19,AAPFRFVARPVRFPPEHQFFEDGD,2.85
20,AAPFRFVARPVRFPAEHQFFEDGD,1.94
21,AAPFRFVARPVRFPCEHQFFEDGD,2.03
22,AAPFRFVARPVRFPWEHQFFEDGD,1.65
23,AAPFRFVARPVRFPMEHQFFEDGD,1.89
24,AAPFRFVARPVRFPDEHQFFEDGD,1.72

row,Variant,protein stability index
1,AAPFRFVARPVRFPNEHQFFEDGD,1.62
2,AAPFRFVARPVRFPVEHQFFEDGD,1.86
3,AAPFRFVARPVRFPIEHQFFEDGD,1.98
4,AAPFRFVARPVRFPHEHQFFEDGD,1.84
5,AAPFRFVARPVRFPLEHQFFEDGD,3.44
6,AAPFRFVARPVRFPEEHQFFEDGD,2.06
7,AAPFRFVARPVRFPKEHQFFEDGD,2.2
8,AAPFRFVARPVRFPYEHQFFEDGD,1.71
9,AAPFRFVARPVRFPSEHQFFEDGD,2.48
10,AAPFRFVARPVRFPGEHQFFEDGD,1.74
11,AAPFRFVARPVRFPREHGFFEDGD,1.87
12,AAPFRFVARPVRFPREHKFFEDGD,2.46
13,AAPFRFVARPVRFPREHMFFEDGD,2.86
14,AAPFRFVARPVRFPREHVFFEDGD,1.9
15,AAPFRFVARPVRFPREHYFFEDGD,1.74
16,AAPFRFVARPVRFPREHLFFEDGD,2.18
17,AAPFRFVARPVRFPREHIFFEDGD,2.26
18,AAPFRFVARPVRFPREHNFFEDGD,2.33
19,AAPFRFVARPVRFPREHDFFEDGD,1.8
20,AAPFRFVARPVRFPREHAFFEDGD,2.77
21,AAPFRFVARPVRFPREHWFFEDGD,2.44
22,AAPFRFVARPVRFPREHCFFEDGD,1.64
23,AAPFRFVARPVRFPREHSFFEDGD,2.46
24,AAPFRFVARPVRFPREHEFFEDGD,1.96

row,Variant,protein stability index
1,AAPFRFVARPVRFPREHHFFEDGD,1.7
2,AAPFRFVARPVRFPREHPFFEDGD,2.05
3,AAPFRFVARPVRFPREHTFFEDGD,1.69
4,AAPFRFVARPVRFPREHFFFEDGD,1.69
5,AAPFRFVARPVRFPREHRFFEDGD,2.27
6,AAPFRFVARFVRFPREHQFFEDGD,2.44
7,AAPFRFVARQVRFPREHQFFEDGD,2.08
8,AAPFRFVARAVRFPREHQFFEDGD,1.96
9,AAPFRFVARIVRFPREHQFFEDGD,4.18
10,AAPFRFVARKVRFPREHQFFEDGD,2.77
11,AAPFRFVAREVRFPREHQFFEDGD,1.81
12,AAPFRFVARHVRFPREHQFFEDGD,2.14
13,AAPFRFVARDVRFPREHQFFEDGD,2.07
14,AAPFRFVARLVRFPREHQFFEDGD,1.75
15,AAPFRFVARCVRFPREHQFFEDGD,2.36
16,AAPFRFVARNVRFPREHQFFEDGD,1.88
17,AAPFRFVARSVRFPREHQFFEDGD,1.5
18,AAPFRFVARTVRFPREHQFFEDGD,1.29
19,AAPFRFVARGVRFPREHQFFEDGD,1.87
20,AAPFRFVARRVRFPREHQFFEDGD,1.8
21,AAPFRFVARYVRFPREHQFFEDGD,2.59
22,AAPFRFVARVVRFPREHQFFEDGD,2.06
23,AAPFRFVARPVRFPREVQFFEDGD,1.94
24,AAPFRFVARPVRFPREQQFFEDGD,2.45

row,Variant,protein stability index
1,AAPFRFVARPVRFPRELQFFEDGD,2.15
2,AAPFRFVARPVRFPRESQFFEDGD,2.2
3,AAPFRFVARPVRFPREAQFFEDGD,2.66
4,AAPFRFVARPVRFPRETQFFEDGD,2.35
5,AAPFRFVARPVRFPRERQFFEDGD,2.29
6,AAPFRFVARPVRFPREEQFFEDGD,2.71
7,AAPFRFVARPVRFPRECQFFEDGD,2.66
8,AAPFRFVARPVRFPREYQFFEDGD,2.11
9,AAPFRFVARPVRFPREDQFFEDGD,2.05
10,AAPFRFVARPVRFPREKQFFEDGD,2.2
11,AAPFRFVARPVRFPREWQFFEDGD,1.72
12,AAPFRFVARPVRFPREPQFFEDGD,1.92
13,AAPFRFVARPVRFPRENQFFEDGD,2.71
14,AAPFRFVARPVRFPREMQFFEDGD,2.37
15,AAPFRFVARPVRFPREIQFFEDGD,2.59
16,AAPFRFVARPVRFPREFQFFEDGD,1.73
17,AAPFRFVARPVRFPREGQFFEDGD,2.29
18,AAPFRFVARPVRVPREHQFFEDGD,3.13
19,AAPFRFVARPVRMPREHQFFEDGD,2.72
20,AAPFRFVARPVRQPREHQFFEDGD,2.1
21,AAPFRFVARPVRGPREHQFFEDGD,1.74
22,AAPFRFVARPVREPREHQFFEDGD,2.36
23,AAPFRFVARPVRHPREHQFFEDGD,2.66
24,AAPFRFVARPVRRPREHQFFEDGD,2.32

row,Variant,protein stability index
1,AAPFRFVARPVRDPREHQFFEDGD,2.1
2,AAPFRFVARPVRKPREHQFFEDGD,2.17
3,AAPFRFVARPVRWPREHQFFEDGD,2.33
4,AAPFRFVARPVRYPREHQFFEDGD,2.29
5,AAPFRFVARPVRTPREHQFFEDGD,2.37
6,AAPFRFVARPVRIPREHQFFEDGD,2.48
7,AAPFRFVARPVRPPREHQFFEDGD,2.74
8,AAPFRFVARPVRLPREHQFFEDGD,2.49
9,AAPFRFVARPVRCPREHQFFEDGD,1.8
10,AAPFRFVARPVRAPREHQFFEDGD,2.25
11,AAPFRFVARPVRSPREHQFFEDGD,1.86
12,AAPFRFVARPVRNPREHQFFEDGD,1.95
13,AAPFRFVARPVRFPREHQLFEDGD,2.61
14,AAPFRFVARPVRFPREHQQFEDGD,2.46
15,AAPFRFVARPVRFPREHQGFEDGD,2.8
16,AAPFRFVARPVRFPREHQIFEDGD,1.87
17,AAPFRFVARPVRFPREHQCFEDGD,2.08
18,AAPFRFVARPVRFPREHQAFEDGD,2.52
19,AAPFRFVARPVRFPREHQKFEDGD,2.08
20,AAPFRFVARPVRFPREHQMFEDGD,3.14
21,AAPFRFVARPVRFPREHQPFEDGD,2.63
22,AAPFRFVARPVRFPREHQHFEDGD,2.39
23,AAPFRFVARPVRFPREHQEFEDGD,2.61
24,AAPFRFVARPVRFPREHQNFEDGD,2.52

row,Variant,protein stability index
1,AAPFRFVARPVRFPREHQDFEDGD,2.48
2,AAPFRFVARPVWFPREHQFFEDGD,1.9
3,AAPFRFVARPVMFPREHQFFEDGD,2.03
4,AAPFRFVARPVLFPREHQFFEDGD,2.13
5,AAPFRFVARPVSFPREHQFFEDGD,3.73
6,AAPFRFVARPVKFPREHQFFEDGD,2.29
7,AAPFRFVARPVFFPREHQFFEDGD,1.54
8,AAPFRFVARPVVFPREHQFFEDGD,2.23
9,AAPFRFVARPVTFPREHQFFEDGD,2.62
10,AAPFRFVARPVNFPREHQFFEDGD,2.37
11,AAPFRFVARPVEFPREHQFFEDGD,1.97
12,AAPFRFVARPVYFPREHQFFEDGD,1.74
13,AAPFRFVARPVQFPREHQFFEDGD,2.44
14,AAPFRFVARPVPFPREHQFFEDGD,2.22
15,AAPFRFVARPVIFPREHQFFEDGD,2.97
16,AAPFRFVARPVAFPREHQFFEDGD,1.48
17,AAPFRFVARPVHFPREHQFFEDGD,2.18
18,AAPFRFVARPVGFPREHQFFEDGD,2.1
19,AAPFRFVARPVCFPREHQFFEDGD,1.62
20,AAPFRFVARPVDFPREHQFFEDGD,1.85
